{
  "source": "paper PMC4860158",
  "about": "(Journal of neurochemistry, 2016)",
  "proteins": {"B1": {"name": "Gloeobacter violaceus ligand-gated ion channel (GLIC), wild type, pentameric assembly (natural protein, UniProt Q7NDN8 44-359, looked up)", "chain": "QDMVSPPPPIADEPLTVNTGIYLIECYSLDDKAETFKVNAFLSLSWKDRRLAFDPVRSGVRVKTYEPEAIWIPEIRFVNVENARDADVVDISVSPDGTVQYLERFSARVLSPLDFRRYPFDSQTLHIYLIVRSVDTRNIVLAVDLEKVGKNDDVFLTGWDIESFTAVVKPANFALEDRLESKLDYQLRISRQYFSYIPNIILPMLFILFISWTAFWSTSYEANVTLVVSTLIAHIAFNILVETNLPKTPYMTYTGAIIFMIYLFYFVAVIEVTVQHYLKVESQPARAASITRASRIAFPVVFLLANIILAFLFFGF"}},
  "biological_target": "the molecule itself",
  "assay": "SEC",
  "data": [
    {"protein": "B1", "values": [
      {"measurement": "stoichiometry N", "value": 5}
    ]}
  ]
}
